T1: biotinylated recombinant human IL-12Rβ2 (produced in-house) (human, UniProt Q99665 24-622, random biotinylated)
T1 construct: also called hIL-12RB2; hIL12RB2
T1 sequence: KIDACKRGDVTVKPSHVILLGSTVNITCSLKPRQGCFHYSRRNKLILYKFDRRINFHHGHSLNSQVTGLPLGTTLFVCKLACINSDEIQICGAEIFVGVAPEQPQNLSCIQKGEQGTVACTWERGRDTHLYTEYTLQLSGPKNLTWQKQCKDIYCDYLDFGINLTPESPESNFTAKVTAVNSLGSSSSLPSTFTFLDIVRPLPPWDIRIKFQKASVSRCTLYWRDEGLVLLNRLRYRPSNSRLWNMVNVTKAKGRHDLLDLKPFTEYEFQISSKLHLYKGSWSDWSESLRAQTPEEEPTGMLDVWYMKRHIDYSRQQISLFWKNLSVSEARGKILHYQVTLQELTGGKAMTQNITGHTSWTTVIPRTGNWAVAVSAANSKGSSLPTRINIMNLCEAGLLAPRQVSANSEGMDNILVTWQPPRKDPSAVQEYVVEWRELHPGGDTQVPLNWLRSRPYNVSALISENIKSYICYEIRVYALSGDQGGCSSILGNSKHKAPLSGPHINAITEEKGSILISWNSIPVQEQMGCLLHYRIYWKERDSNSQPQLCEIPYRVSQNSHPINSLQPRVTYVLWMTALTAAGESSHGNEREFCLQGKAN

T2: biotinylated recombinant mouse IL-12Rβ2 (produced in-house) (mouse, UniProt P97378 24-637, random biotinylated)
T2 construct: also called mIL-12RB2; mIL12RB2
T2 sequence: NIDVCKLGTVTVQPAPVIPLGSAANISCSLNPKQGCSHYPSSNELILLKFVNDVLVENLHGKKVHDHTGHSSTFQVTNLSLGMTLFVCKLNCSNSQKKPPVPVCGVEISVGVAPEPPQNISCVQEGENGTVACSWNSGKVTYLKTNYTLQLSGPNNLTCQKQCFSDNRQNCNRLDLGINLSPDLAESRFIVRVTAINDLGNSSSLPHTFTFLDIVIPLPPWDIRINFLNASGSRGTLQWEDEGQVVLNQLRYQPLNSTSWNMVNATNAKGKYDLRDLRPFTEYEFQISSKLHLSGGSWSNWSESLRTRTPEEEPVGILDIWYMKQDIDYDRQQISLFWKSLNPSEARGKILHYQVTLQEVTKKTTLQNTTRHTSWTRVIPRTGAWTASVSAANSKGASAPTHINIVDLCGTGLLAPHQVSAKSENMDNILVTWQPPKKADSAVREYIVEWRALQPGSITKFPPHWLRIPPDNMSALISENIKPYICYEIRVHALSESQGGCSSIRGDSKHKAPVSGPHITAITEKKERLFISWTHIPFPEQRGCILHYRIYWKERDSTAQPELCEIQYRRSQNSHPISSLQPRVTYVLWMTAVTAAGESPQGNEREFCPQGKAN

T3: human IL-12Rβ2 expressed on cells (human, UniProt Q99665 24-862)
T3 construct: HEK293T cells transiently transfected with a human IL-12Rβ2 plasmid (Genscript OHu21785); also called hIL-12RB2
T3 sequence: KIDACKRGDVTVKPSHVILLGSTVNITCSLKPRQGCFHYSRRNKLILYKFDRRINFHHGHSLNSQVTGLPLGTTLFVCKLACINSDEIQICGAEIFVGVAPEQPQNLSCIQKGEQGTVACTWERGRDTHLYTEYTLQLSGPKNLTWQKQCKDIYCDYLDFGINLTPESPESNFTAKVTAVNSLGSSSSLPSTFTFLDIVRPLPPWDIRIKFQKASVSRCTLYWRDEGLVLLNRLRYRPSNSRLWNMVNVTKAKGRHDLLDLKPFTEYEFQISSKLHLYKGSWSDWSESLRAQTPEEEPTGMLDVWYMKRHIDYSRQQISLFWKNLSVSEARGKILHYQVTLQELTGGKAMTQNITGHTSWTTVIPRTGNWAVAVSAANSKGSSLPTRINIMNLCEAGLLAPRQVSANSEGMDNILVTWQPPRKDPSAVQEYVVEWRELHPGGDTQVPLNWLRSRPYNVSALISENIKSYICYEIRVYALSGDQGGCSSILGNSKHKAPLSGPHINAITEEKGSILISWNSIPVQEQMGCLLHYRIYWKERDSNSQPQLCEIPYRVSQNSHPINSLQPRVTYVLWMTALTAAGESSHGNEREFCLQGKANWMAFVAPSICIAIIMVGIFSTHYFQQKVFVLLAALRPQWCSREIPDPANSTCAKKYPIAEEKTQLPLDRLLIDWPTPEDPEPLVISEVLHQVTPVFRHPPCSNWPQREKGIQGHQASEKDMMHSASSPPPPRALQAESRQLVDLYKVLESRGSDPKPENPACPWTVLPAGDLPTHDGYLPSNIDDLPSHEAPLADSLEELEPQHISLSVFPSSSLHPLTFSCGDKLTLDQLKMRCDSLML


Assays:
[1] = molecular target: T1, biotinylated recombinant human IL-12Rβ2 …; experiment: ELISA, P.E. VHH on biotinylated hIL-12RB2, signal ratio to control well
[2] = molecular target: T1, biotinylated recombinant human IL-12Rβ2 …; experiment: BLI (Octet), P.E. VHH on immobilised biotinylated hIL-12RB2
[3] = molecular target: T2, biotinylated recombinant mouse IL-12Rβ2 …; experiment: ELISA, P.E. VHH on biotinylated mIL-12RB2
[4] = molecular target: T1, biotinylated recombinant human IL-12Rβ2 …; experiment: BLI (Octet), P.E. VHH on immobilised biotinylated hIL-12RB2, 1:1 model
[5] = molecular target: T2, biotinylated recombinant mouse IL-12Rβ2 …; experiment: ELISA, P.E. VHH on biotinylated mIL-12RB2, signal ratio to control well
[6] = molecular target: T3, human IL-12Rβ2 expressed on cells; experiment: flow cytometry, P.E. VHH on HEK293T cells transiently expressing hIL-12RB2

Row | ELISA hIL12RB2/control [1] | Response [2] | binding result [3] | koff [4] [s⁻¹] | ELISA mIL12RB2/control [5] | dMFI [6] | Binder
1 | 10.2 | 0.297 | no binding | 0.00355 | 1.03 | 1010 | anti-IL-12Rβ2 VHH clone 3CRHS106 (VHH, not shown: small tags and cut ends, tested as periplasmic extract) VHH: QVQLQESGGGLVQPGGSLRLSCKASGFTFSTYAMSWVRQAPGKGLEWVSAVNSGGLSTDYADSVEGRFTISRDDAKNMLFLQMNSLKPEDTARYYCAKYEDCSDYMCHRDRAGYWGQGTQVTVSS
2 | 4.98 | 0.352 | no binding | 0.00324 | 1.07 | 812 | anti-IL-12Rβ2 VHH clone 3CAHS142 (VHH, not shown: small tags and cut ends, tested as periplasmic extract) VHH: QVQLQESGGGLVQAGESLTLSCIASGVIKDYAMGWFRQAPGKEREFVAAISWSGVSIYYADSVKGRFTISRDNAKNTVYLQMNSLEPEDTAVYYCAGTEGAYTVAGGSTFGYDMDYWGKGTQVTVSS
3 | 7.85 | 0.203 | no binding | 0.00272 | 1.26 | 870 | anti-IL-12Rβ2 VHH clone 3CRHS54 (VHH, not shown: small tags and cut ends, tested as periplasmic extract; also called 3CRHSS4) VHH: QVQLQESGGGLVQPGGSLRLSCTASGSIVSIYNMDWYRQAPGNEREWVASITSSGDPYYDGSAKGRFTISRDNAKMTVYLQMNSLEPEDTAVYFCKVPTEKGNYWGQGTQVTVSS
4 | 5.08 | 0.222 | no binding | 0.0034 | 1.09 | 941 | anti-IL-12Rβ2 VHH clone 3CRHS9 (VHH, not shown: small tags and cut ends, tested as periplasmic extract) VHH: QVQLQESGGGLVQPGGSLRLSCTASGSIVSIYNMDWYRQAPGNEREWVASITSSGDPYYDGSAKGRFTISRDNAKMTVYLQMNSLKPEDTAVYYCKVPTEKGNYWGQGTQVTVSS
5 | 3.65 | 0.294 | no binding | 0.00274 | 0.98 | 1380 | anti-IL-12Rβ2 VHH clone 3CRHS128 (VHH, not shown: small tags and cut ends, tested as periplasmic extract; also called SCRHS128) VHH: QVQLQESGGGLVQPGGSLRLSCAASGFTFSTSGMHWFRQAPGKGLEWVSSIGATVDNSYYASSVKGRFTISRDNAKNTLYLLMNSLKSEDTAVYYCSKDPTGSSRGQGTQVTVSS
